Where a chain is given by its changes, count along the chain named. Names may count otherwise.

The source of these data is patent US10294487B2, “Methods and compositions involving ALS variants with native substrate preference” (E I DU PONT DE NEMOURS AND COMPANY, priority 2012, dated 2019).

In one series the test system is ALS. The conditions noted are these: cited from earlier work.
Series [1] has as its system G. max ALS1 protein. In words: Colorimetric ALS kinetic assay (Km, kcat) with pyruvate as substrate. The class given is biochemical, Glycine max. Here is the method: A survey of known ALS (AcetoLactate Synthase) gene variants (Table 2) was performed, and a number of ALS variants were selected for kinetic evaluation based on breadth and strength of insensitivity to ALS-inhibitor herbicides as well as kinetic activity parameters including the ratio of substrate preferences. The selected ALS gene variants (Table 3) were generated by PCR mediated site-directed mutagenesis. Finnzymes PHUSION® DNA polymerase (Cat. No. F-530S) was used for the PCR reactions, following the instructions for recommended temperatures and cycles in the PHUSION® protocol. Some mutagenesis reactions were assisted by the use of IN-FUSION® enzyme (Clontech Cat. No. 639620) to circularize a linear plasmid with the mutation located within the 15 nucleotide overlapping ends, via recombination following the manufacturer's protocol for primer design and reaction conditions. The ALS genes, beginning with encoded amino acids SISK, (S48 to K51 in the G. max ALS1 protein (SEQ ID NO:1) corresponding to the mature protein N-terminus of the chloroplast localized enzyme), were cloned into the PMAL® E. coli expression vector (New England Biolabs) to express ALS as a fusion protein with a Maltose-Binding Protein (MBP) at the N-terminus with a thrombin site for cleavage and a His-6 tag for affinity purification. All in vitro protein characterization described in the examples was carried out with the isolated proteins after cleavage from the His-MBP fusion partner.
Km and Kcat determinations for recombinant ALS variants (with respect to pyruvate as the substrate) were performed using a colorimetric assay. ALS assays were carried out in 96-well microplates with 150 ul reaction containing 25 mM potassium phosphate, 0.2 mg/ml BSA, 15 mM MgCl2, 0.7 mM TPP, 28 uM FAD and 0-100 mM sodium pyruvate. Reactions were initiated by the addition of ALS enzyme to a final amount of 0.8 ug/well. Parameters for Km and Vmax were determined by fitting the velocity versus substrate concentration data to a rectangular hyperbola using GraphPad Prism software. Kcat values were determined from Vmax based on protein concentration in the reactions.

Series [2] has as its system G. max ALS1 protein. In words: Substrate specificity ratio (Rf), pyruvate versus 2-ketobutyrate, LC-MS of reduced products. The format is biochemical, Glycine max. The conditions noted are these: ratio of [pyruvate] to [2-ketobutyrate] giving equal rates of acetolactate and acetohydroxybutyrate formation; 25 mM pyruvate. An excerpt:
The “substrate specificity ratio”, or “Rf”, characterizes the specificity of the ALS enzyme for AHB formation relative to AL formation (Gollop et al. (1989) Biochemistry 28:6310-6317). Rf is the ratio of [pyruvate] to [2-ketobutyrate] that results in equal rates of formation of acetolactate and acetohydroxybutyrate. Rf is a constant at all substrate concentrations. The substrate specificity ratio is ˜114 for the wild type Glycine max ALS1 enzyme (SEQ ID NO:1) compared to ˜3 for the highly resistant allele (HRA) double mutant variant (SEQ ID NO: 10) of the Glycine max ALS1. The soybean HRA sequence is disclosed, for example, in WO2007/024782, herein incorporated by reference.
Substrate preference was determined using the assay described in Example 3; however, the assay was conducted using a constant concentration of pyruvate (25 mM) and varying concentrations of the second substrate, 2-ketobutyrate. Each reaction involving a specific ratio of pyruvate to 2-ketobutyrate, after a set period of time, was quenched by addition of sodium borohydride (7-fold excess) to form the reduced adducts of the products of the two substrates namely; reduced acetolactate for the reaction with pyruvate and reduced aceto hydroxybutyrate for the 2-ketobutyrate reaction. The relative amounts of the two reduced products was determined by first, chromatographic separation using a 4.6×250 mm dC18 column (Atlantis) equilibrated with a 0.1% formic acid solution and subsequent elution using a methanol gradient at 0.7 ml/min, followed by detection using a Thermo FINNIGAN® LTQ® Mass Spectrometer (MS). The products of the two reactions were quantified by integration of the MS signals. The % of the amount of each of the reduced products was then plotted versus the concentration of 2-ketobutyrate. As the 2-ketobutyrate amount increased there was a consequent increase in reduced acetohydroxybutyrate (AHB) and decrease in reduced acetolactate (AL). […] The substrate specificity ratio was ˜114 for the wild type enzyme compared to 3 for the highly resistant allele (HRA) double mutant ALS variant (SEQ ID NO: 10).

B1: P197S: Chemical mutagenesis of A. thaliana plants; position P197, 178 (protein, UniProt P17597 56-670, looked up, variant P197S)
Acetolactate synthase, …: SSSPSSISAVLNTTTNVTTTPSPTKPTKPETFISRFAPDQPRKGADILVEALERQGVETVFAYPGGASMEIHQALTRSSSIRNVLPRHEQGGVFAAEGYARSSGKPGICIATSGPGATNLVSGLADALLDSVPLVAITGQVSRRMIGTDAFQETPIVEVTRSITKHNYLVMDVEDIPRIIEEAFFLATSGRPGPVLVDVPKDIQQQLAIPNWEQAMRLPGYMSRMPKPPEDSHLEQIVRLISESKKPVLYVGGGCLNSSDELGRFVELTGIPVASTLMGLGSYPCDDELSLHMLGMHGTVYANYAVEHSDLLLAFGVRFDDRVTGKLEAFASRAKIVHIDIDSAEIGKNKTPHVSVCGDVKLALQGMNKVLENRAEELKLDFGVWRNELNVQKQKFPLSFKTFGEAIPPQYAIKVLDELTDGKAIISTGVGQHQMWAAQFYNYKKPRQWLSSGGLGAMGFGLPAAIGASVANPDAIVVDIDGDGSFIMNVQELATIRVENLPVKVLLLNNQHLGMVMQWEDRFYKANRAHTFLGDPAQEDEIFPNMLLFAAACGIPAARVTKKADLREAIQTMLDTPGPYLLDVICPHQEHVLPMIPSGGTFNDVITEGDGRIKY
Consider B1, for which the “Resistance pattern, I50 fold increase: IP” value with ALS (IP (abbreviation not defined)) was “IP, 2 fold”. Further, the “Resistance pattern, I50 fold increase: CS” value in the series on ALS (chlorsulfuron) is recorded as “CS, 1000 fold”.

B2: GM-ALS_P178S_A186V: Glycine Max ALS1 with P→S at position 178 and A→V at position 186 (protein)
chain: MAATASRTTRFSSSSSHPTFPKRITRSTLPLSHQTLTKPNHALKIKCSISKPPTAAPFTKEAPTTEPFVSRFASGEPRKGADILVEALERQGVTTVFAYPGGASMEIHQALTRSAAIRNVLPRHEQGGVFAAEGYARSSGLPGVCIATSGPGATNLVSGLADALMDSVPVVAITGQVSRRMIGTDVFQETPIVEVSRSITKHNYLILDVDDIPRVVAEAFFVATSGRPGPVLIDIPKDVQQQLAVPNWDEPVNLPGYLARLPRPPAEAQLEHIVRLIMEAQKPVLYVGGGSLNSSAELRRFVELTGIPVASTLMGLGTFPIGDEYSLQMLGMHGTVYANYAVDNSDLLLAFGVRFDDRVTGKLEAFASRAKIVHIDIDSAEIGKNKQAHVSVCADLKLALKGINMILEEKGVEGKFDLGGWREEINVQKHKFPLGYKTFQDAISPQHAIEVLDELTNGDAIVSTGVGQHQMWAAQFYKYKRPRQWLTSGGLGAMGFGLPAAIGAAVANPGAVVVDIDGDGSFIMNVQELATIRVENLPVKILLLNNQHLGMVVQWEDRFYKSNRAHTYLGDPSSESEIFPNMLKFADACGIPAARVTKKEELRAAIQRMLDTPGPYLLDVIVPHQEHVLPMIPSNGSFKDVITEGDGRTRY
modifications: ALS1 variant P178S A186V
For the molecule B2, in the series with G. max ALS1 protein [1], the Km is 21 mM and the kcat is 0.45 s⁻¹. For the same molecule, in the series with G. max ALS1 protein [2], the “Substrate specificity ratio (Rf)” value worked out at 29.0.

B3: GM-ALS_K237Q: Glycine Max ALS1 variant with a K→Q mutation at position 237 (protein)
chain: B2 chain with S178P, V186A, K237Q
modifications: ALS1 variant K237Q
In the case of B3, in the series with G. max ALS1 protein [1], the Km stood at 20 mM and the kcat was found to be 1.35 s⁻¹. In the series with G. max ALS1 protein [2], the “Substrate specificity ratio (Rf)” value worked out at 100.0.

B4: GM-ALS_A186D: Glycine Max ALS1 variant with a A→D mutation at position 186 (protein)
chain: B2 chain with S178P, V186D
modifications: ALS1 variant A186D
Regarding B4, in the series with G. max ALS1 protein [1], the Km turned out to be 35 mM and the kcat is 0.15 s⁻¹. Further, the “Substrate specificity ratio (Rf)” value in the series with G. max ALS1 protein [2] is given as 21.7.

B5: GM-ALS_D357E: Glycine Max ALS1 variant with a D→E mutation at position 357 (protein)
chain: B2 chain with S178P, V186A, D357E
modifications: ALS1 variant D357E
In the case of B5, in the series with G. max ALS1 protein [1], the Km was 3 mM and the kcat amounted to 2.8 s⁻¹. For the same molecule, the “Substrate specificity ratio (Rf)” value with G. max ALS1 protein [2] is 67.6.

B6: GM-ALS_F559L: Glycine Max ALS1 variant with a F→L mutation at position 559 (protein)
chain: B2 chain with S178P, V186A, F559L
modifications: F559L
As for B6, in the series with G. max ALS1 protein [1], the Km came to 6 mM and the kcat stood at 1.78 s⁻¹. The “Substrate specificity ratio (Rf)” value in the series on G. max ALS1 protein [2] came out at 62.5.

B7: GM-ALS_K237F: Glycine Max ALS1 variant with a K→F mutation at position 237 (protein)
chain: B2 chain with S178P, V186A, K237F
modifications: ALS1 variant K237F
Take B7: in the series with G. max ALS1 protein [1], the Michaelis-Menten constant (Km) came to 27 mM and the kcat worked out at 2.17 s⁻¹. Besides, the “Substrate specificity ratio (Rf)” value in the series with G. max ALS1 protein [2] came out at 100.0.

B8: GM-ALS_P178S_F559D: Glycine Max ALS1 with P→S at position 178 and F→D at position 559 (protein)
chain: B2 chain with V186A, F559D
modifications: ALS1 variant P178S F559D
Consider B8, for which, in the series on G. max ALS1 protein [1], the Km came out at 40 mM and the kcat turned out to be 0.833 s⁻¹. In addition, the “Substrate specificity ratio (Rf)” value in the series with G. max ALS1 protein [2] was determined as 89.0.

B9: GM-ALS_A186V: Glycine Max ALS1 variant with a A→V mutation at position 186 (protein)
chain: B2 chain with S178P
modifications: ALS1 variant A186V
With B9, in the series on G. max ALS1 protein [1], the Km was determined as 14 mM and the catalytic constant (kcat) is 0.467 s⁻¹. Also, the “Substrate specificity ratio (Rf)” value with G. max ALS1 protein [2] came out at 40.3.

B10: GM-ALS_P178S_D357N: Glycine Max ALS1 with P→S at position 178 and D→N at position 357 (protein)
chain: B2 chain with V186A, D357N
modifications: ALS1 variant P178S D357N
For B10, in the series on G. max ALS1 protein [1], the Michaelis constant (Km) was 4 mM and the kcat is 1.82 s⁻¹. Also, the “Substrate specificity ratio (Rf)” value in the series with G. max ALS1 protein [2] turned out to be 49.0.

B11: GM-ALS_F559D: Glycine Max ALS1 variant with a F→D mutation at position 559 (protein)
chain: B2 chain with S178P, V186A, F559D
modifications: ALS1 variant F559D
Consider B11, for which, in the series on G. max ALS1 protein [1], the Michaelis constant (Km) was determined as 20 mM and the kcat was found to be 0.417 s⁻¹. Moreover, the “Substrate specificity ratio (Rf)” value in the series with G. max ALS1 protein [2] is 96.0.

B12: GM-ALS_D357N: Glycine Max ALS1 variant with a D→N mutation at position 357 (protein)
chain: B2 chain with S178P, V186A, D357N
modifications: ALS1 variant D357N
For the molecule B12, in the series with G. max ALS1 protein [1], the Km was found to be 6 mM and the kcat was found to be 2.5 s⁻¹. Also, the “Substrate specificity ratio (Rf)” value with G. max ALS1 protein [2] was 72.0.

B13: GM-ALS_W555L: Glycine Max ALS1 variant with a W→L mutation at position 555 (protein)
chain: B2 chain with S178P, V186A, W555L
modifications: ALS1 variant W555L
In the case of B13, in the series on G. max ALS1 protein [1], the Km was 1.8 mM and the kcat amounted to 1.08 s⁻¹. The “Substrate specificity ratio (Rf)” value in the series with G. max ALS1 protein [2] came out at 2.6.
